# Results published in US20040146507A1.
# Columns and labels:
# [1] = biological target: rhesus CD18 (rhesus) (UniProt H9Z8N5); assay: saturation binding, rhesus leukocytes, donor 2; Kd(app)
# [2] = biological target: rhesus CD18 (rhesus) (UniProt H9Z8N5); assay: saturation binding, rhesus leukocytes, donor 1; Kd(app)
# [3] = biological target: rhesus CD18 (rhesus) (UniProt H9Z8N5); assay: cell-based or functional assay
# [4] = biological target: human CD18 (human) (UniProt P05107); assay: cell-based or functional assay
# human CD18 (human), sequence (P05107 23-769): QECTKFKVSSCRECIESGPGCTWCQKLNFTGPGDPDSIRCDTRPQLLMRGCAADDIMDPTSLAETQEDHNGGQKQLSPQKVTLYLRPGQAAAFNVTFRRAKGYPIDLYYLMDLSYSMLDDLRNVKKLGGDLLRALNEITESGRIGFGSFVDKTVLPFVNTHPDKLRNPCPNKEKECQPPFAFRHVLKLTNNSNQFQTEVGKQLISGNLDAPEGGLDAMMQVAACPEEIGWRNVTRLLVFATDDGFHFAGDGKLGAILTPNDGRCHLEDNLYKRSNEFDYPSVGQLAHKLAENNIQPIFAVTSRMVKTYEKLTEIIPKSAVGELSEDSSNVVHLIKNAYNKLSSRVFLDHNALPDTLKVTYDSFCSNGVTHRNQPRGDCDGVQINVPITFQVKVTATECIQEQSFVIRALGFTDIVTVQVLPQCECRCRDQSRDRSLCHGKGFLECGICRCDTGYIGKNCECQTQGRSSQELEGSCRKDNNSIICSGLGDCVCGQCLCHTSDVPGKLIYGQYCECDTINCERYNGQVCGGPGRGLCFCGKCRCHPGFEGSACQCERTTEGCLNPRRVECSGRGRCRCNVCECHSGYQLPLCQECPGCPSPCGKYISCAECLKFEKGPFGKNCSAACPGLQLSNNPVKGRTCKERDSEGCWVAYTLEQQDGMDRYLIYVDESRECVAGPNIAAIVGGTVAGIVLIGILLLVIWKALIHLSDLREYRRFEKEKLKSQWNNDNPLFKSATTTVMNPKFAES
substance,measurement,setting,value
murine anti-human CD18 antibody MHM23,Kd,[1],4.5 nM
same,Kd,[2],3.9 nM
same,"IC50, blocking of cell adhesion, RhLy: HuICAM",[3],1.2 nM
same,"IC50, blocking of cell adhesion, RhLy: HuK",[3],1.6 nM
same,"IC50, blocking of cell adhesion, Rh/HuCD11a: HuK",[4],1.4 nM
